From patent publication US20120237528A1 (Janssen / Centocor, published 2012)
Where two headings read alike, the source gives them in different places.

T1: Cynomolgous monkey (cyno) TF-ECD with His Tag (cynomolgus monkey, UniProt P13726 33-251 (human entry))
T1 construct: also called cyno antigen
T1 chain: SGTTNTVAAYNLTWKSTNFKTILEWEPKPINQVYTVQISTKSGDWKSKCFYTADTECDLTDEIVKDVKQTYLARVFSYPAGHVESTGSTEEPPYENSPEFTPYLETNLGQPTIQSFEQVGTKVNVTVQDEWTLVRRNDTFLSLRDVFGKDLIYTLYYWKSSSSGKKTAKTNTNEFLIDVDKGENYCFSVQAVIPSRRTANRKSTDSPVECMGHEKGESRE


How the values were obtained:
[1] = target: T2, recombinant human FcγIIIa receptor (human, UniProt P08637 17-208, limits assumed); assay: cell-based or functional assay
T2 sequence (P08637 17-208 limits assumed): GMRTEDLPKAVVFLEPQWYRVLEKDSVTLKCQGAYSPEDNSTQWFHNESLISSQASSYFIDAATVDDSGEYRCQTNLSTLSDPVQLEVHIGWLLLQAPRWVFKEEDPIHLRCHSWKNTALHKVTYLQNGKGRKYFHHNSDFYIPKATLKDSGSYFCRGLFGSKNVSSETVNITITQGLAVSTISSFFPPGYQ

[2] = target: T3, endogenous human tissue factor on MDA-MB-231 breast cancer cells (human, UniProt P13726 33-295); assay: cell-based or functional assay
[3] = target: T1, Cynomolgous monkey (cyno) TF-ECD with …; assay: TF-ECD binding ELISA, chemiluminescent
[4] = target: T4, recombinant extracellular domain (ECD) of human TF, amino acid 1-219 of the mature chain, C-terminal His6-tag (human, UniProt P13726 33-251); assay: TF-ECD binding ELISA, chemiluminescent
T4 construct: expressed in a mammalian system; used for ELISA and Biacore; biotinylated by NHS-ester for the Fab ELISA; also called His6-TF-ECD1-219; HumanTF1-219

[5] = target: Innovin, lyophilized recombinant human tissue factor combined with phospholipids (human, UniProt P13726 33-295, limits assumed); assay: cell-based or functional assay
[6] = target: T3, endogenous human tissue factor on …; assay: FACS on MDA-MB-231 cells
Description: This assay is used to detect the direct binding of antibody to endogenouse human TF expressed in breast cancer cells. Prepare four point titrations of the test mAbs in FACS buffer (1% FBS in PBS) in duplicate. Start a titration at 1,000 ng/ml with 1:4 dilutions. […] Unstained cells and secondary antibody, Cy-5 conjugated Goat anti-Human IgG Fc antibody in FACS buffer 1:200, is used as controls and prepared immediately before use.
Using standard tissue culture technique, rinse adherent MDA-MB-231 cells in culture flask with once with PBS (w/o Ca+2/Mg+2). Lift cells with Versene and count the cells and seed 200,000 cells per well in a polystyrene V-bottom plate. FACS Analysis Protocol: Tissue Factor Binding. Pellet the cells in a Allegra X-15R centrifuge at 450×g for 3 minutes at 4° C., resuspend in FACS Buffer (2% FBS in PBS) and plate 200,000 cells per well in 200 uL. Pellet cells at 450×g for 3 minutes at 4° C. Discard supernatants and add 100 uL/well test or control mAbs to designated wells and incubate on ice or at 4° C. for 1 hour (+/−10 minutes). Pellet cells at 450×g for 3 minutes at 4° C. Discard supernatants and wash cells once in FACS buffer. Resuspend cells in 200 uL/well FACS buffer and pellet cells at 450×g for 3 minutes at 4° C. Discard supernatants and add 100 uL/well secondary antibody to designated wells (triterate), and incubate on ice for 1 hour (+/−10 minutes). Pellet cells at 450×g for 3 minutes at 4° C. Discard supernatants and wash cells 2 times in FACS buffer before resuspending the cells in 200 uL/well FACS Buffer (triterate). Pellet cells at 450×g for 3 minutes at 4° C. Discard supernatant and resuspend cells in 100 uL/well CytoFix Buffer. Analyze reactions by flow cytometry (BD FACSArray). The FlowJo Software is used for FACS data analysis by gating the main population of cells in the unstained control well and applying the gate to the whole data set. The data is exported as a table of the geometric mean fluorescence intensity (MFI) in the red channel for the applied gate.

[7] = target: T3, endogenous human tissue factor on …; assay: cell-based or functional assay; remark: listed apart in the source
[8] = target: T1, Cynomolgous monkey (cyno) TF-ECD with …; assay: Biacore
[9] = target: T4, recombinant extracellular domain (ECD) …; assay: Biacore
[10] = target: T3, endogenous human tissue factor on …; assay: cell-based or functional assay; remark: listed apart in the source
[11] = target: T4, recombinant extracellular domain (ECD) …; assay: Biacore; remark: listed apart in the source
[12] = target: T2, recombinant human FcγIIIa receptor; assay: Fc receptor binding assay (method of a co-pending application or Biacore)
[13] = target: T2, recombinant human FcγIIIa receptor; assay: Fc receptor binding assay

Row | Binder | EC50 (read off the curve) [1] [µg/mL] | IC50 (ug/ml), IL-8 induction assay [2] [µg/mL] | EC50 [3] [µg/mL] | EC50 [4] [µg/mL] | T½ Max (seconds), coagulation of human plasma [5] [s] | Whole Cell Binding, Ave % [6] [%] | IL-8 Induction, Ave % inhibition [7] [%] | Kd [8] [nM] | Kd [9] [nM] | % IL-8 Inhibition [10] [%] | Kd [11] [nM] | koff [11] [s⁻¹] | kon [11] [M⁻¹ s⁻¹] | Kd [12] [nM] | fold tighter binding than the unmodified IgG1 M1593 [13] [fold]
1 | M1, 10H10 mouse-human chimera (antibody, V domains shown, also called H13/L1; parent chimeric antibody) VH: QVHLQQSGAELMKPGASVKISCKASGYTFITYWIEWVKQRPGHGLEWIGDILPGSGSTNYNENFKGKATFTADSSSNTAYMQLSSLTSEDSAVYYCARSGYYGNSGFAYWGQGTLVTVSA VL: DIVMTQSPSSLTVTAGEKVTMSCKSSQSLLSSGNQKNYLTWYQQIPGQPPKLLIYWASTRESGVPDRFTGSGSGTDFTLTINSVQAEDLAVYYCQNDYTYPLTFGAGTKLELK | ~0.07 | 0.527 | 0.0173 | 0.0117 | 173 | 101 | 106 | 1.34 | 0.56 | 96.1 | – | – | – | – | –
2 | M59 (antibody, V domains shown, FR4 is its own entry; also called H22/L3) VH: EVQLVQSGAEVKKPGESLRISCKGSGYTFITYWIEWVRQMPGKGLEWMGDILPGSGSTNYSPSFQGHVTISADKSISTAYLQWSSLKASDTAMYYCARSGYYGNSGFAYWGQGTLVTVSS VL: DIVMTQTPLSLPVTPGEPASISCKSSQSLLSSGNQKNYLTWYLQKPGQSPQLLIYWASTRESGVPDRFSGSGSGTDFTLKISRVEAEDVGVYYCQNDYTYPLTFGQGTKLEIK | – | 0.382 | 0.0187 | 0.0088 | 169 | – | 103 | 1.28 | – | 83.8 | – | – | – | – | –
3 | M1584 (antibody, V domains shown, complete MAb; FR4 is its own entry; also called H173/L3) VH: EVQLVQSGAEVKKPGESLRISCKGSGYTFVTYWIEWVRQMPGKGLEWMGDILPGTGYTVYSPSFQGHVTISADKSISTAYLQWSSLKASDTAMYYCARSGYYGNSGFAYWGQGTLVTVSS VL: DIVMTQTPLSLPVTPGEPASISCKSSQSLLSSGNQKNYLTWYLQKPGQSPQLLIYWASTRESGVPDRFSGSGSGTDFTLKISRVEAEDVGVYYCQNDYTYPLTFGQGTKLEIK | – | 0.332 | – | – | 199 | – | – | – | – | – | 0.3 | 5.6e-05 | 184000 | – | –
4 | M1607 (antibody, V domains shown, complete MAb; FR4 is its own entry; also called H189/L3; TF7M1607) VH: EVQLVQSGAEVKKPGESLRISCKGSGFTFITYWIAWVRQMPGKGLEWMGDILPASSSTNYSPSFQGHVTISADKSISTAYLQWSSLKASDTAMYYCARSGYYGNSGFAYWGQGTLVTVSS VL: DIVMTQTPLSLPVTPGEPASISCKSSQSLLSSGNQKNYLTWYLQKPGQSPQLLIYWASTRESGVPDRFSGSGSGTDFTLKISRVEAEDVGVYYCQNDYTYPLTFGQGTKLEIK | – | 0.395 | – | – | 152 | – | – | – | – | – | 0.35 | 6e-05 | 170000 | – | –
5 | M1611 (antibody, V domains shown, complete MAb; FR4 is its own entry; also called H128/L3) VH: EVQLVQSGAEVKKPGESLRISCKGSGYTFGPYWIEWVRQMPGKGLEWMGDILPGSGYTTYSPSFQGHVTISADKSISTAYLQWSSLKASDTAMYYCARSGYYGNSGFAYWGQGTLVTVSS VL: DIVMTQTPLSLPVTPGEPASISCKSSQSLLSSGNQKNYLTWYLQKPGQSPQLLIYWASTRESGVPDRFSGSGSGTDFTLKISRVEAEDVGVYYCQNDYTYPLTFGQGTKLEIK | – | 0.398 | – | – | 154 | – | – | – | – | – | 0.31 | 5.9e-05 | 192000 | – | –
6 | M1612 (antibody, V domains shown, complete MAb; FR4 is its own entry; also called H133/L3; TF7M1612) VH: EVQLVQSGAEVKKPGESLRISCKGSGYTFNPYWIEWVRQMPGKGLEWMGDILPGTGYTNYSPSFQGHVTISADKSISTAYLQWSSLKASDTAMYYCARSGYYGNSGFAYWGQGTLVTVSS VL: DIVMTQTPLSLPVTPGEPASISCKSSQSLLSSGNQKNYLTWYLQKPGQSPQLLIYWASTRESGVPDRFSGSGSGTDFTLKISRVEAEDVGVYYCQNDYTYPLTFGQGTKLEIK | – | 0.413 | – | – | 163 | – | – | – | – | – | 0.38 | 6.3e-05 | 165000 | – | –
7 | M19 (antibody, V domains shown, complete MAb; FR4 is its own entry; also called H16/L5) VH: QVQLVQSGAEVKKPGASVKVSCKASGYTFITYWIEWVRQAPGQGLEWMGDILPGSGSTNYNENFKGRVTMTRDTSTSTVYMELSSLRSEDTAVYYCARSGYYGNSGFAYWGQGTLVTVSS VL: DIVMTQTPLSLSVTPGQPASISCKSSQSLLSSGNQKNYLTWYLQKPGQPPQLLIYWASTRESGVPDRFSGSGSGTDFTLKISRVEAEDVGVYYCQNDYTYPLTFGQGTKLEIK | – | – | 0.0296 | 0.00922 | 199 | 111 | 106 | 2.81 | 0.41 | 87.3 | 0.41 | 4.1e-05 | 98800 | – | –
8 | M1593 (wild-type human IgG1/kappa constant domains) (antibody, produced in unmodified CHO; also called H171/L3; copies: 2 + 2) heavy: not shown light: DIVMTQTPLSLPVTPGEPASISCKSSQSLLSSGNQKNYLTWYLQKPGQSPQLLIYWASTRESGVPDRFSGSGSGTDFTLKISRVEAEDVGVYYCQNDYTYPLTFGQGTKLEIKRTVAAPSVFIFPPSDEQLKSGTASVVCLLNNFYPREAKVQWKVDNALQSGNSQESVTEQDSKDSTYSLSSTLTLSKADYEKHKVYACEVTHQGLSSPVTKSFNRGEC | ~0.02 | – | – | – | 164 | – | – | – | – | – | – | – | – | 210 | –
9 | M1593-DE (hIgG1 with S239D/I332E) (antibody, copies: 2 + 2) heavy: not shown light: DIVMTQTPLSLPVTPGEPASISCKSSQSLLSSGNQKNYLTWYLQKPGQSPQLLIYWASTRESGVPDRFSGSGSGTDFTLKISRVEAEDVGVYYCQNDYTYPLTFGQGTKLEIKRTVAAPSVFIFPPSDEQLKSGTASVVCLLNNFYPREAKVQWKVDNALQSGNSQESVTEQDSKDSTYSLSSTLTLSKADYEKHKVYACEVTHQGLSSPVTKSFNRGEC | ~0.005 | – | – | – | – | – | – | – | – | – | – | – | – | 5 | 40
10 | M1593-LF (hIgG1 produced in host subline producing reduced fucosylation in glycans) (antibody, glycan with low fucose content (less than 10% fucosylated), same chains as M1593 (IgG1/Kappa), made in a low-fucose CHO subline; copies: 2 + 2) heavy: not shown light: DIVMTQTPLSLPVTPGEPASISCKSSQSLLSSGNQKNYLTWYLQKPGQSPQLLIYWASTRESGVPDRFSGSGSGTDFTLKISRVEAEDVGVYYCQNDYTYPLTFGQGTKLEIKRTVAAPSVFIFPPSDEQLKSGTASVVCLLNNFYPREAKVQWKVDNALQSGNSQESVTEQDSKDSTYSLSSTLTLSKADYEKHKVYACEVTHQGLSSPVTKSFNRGEC | ~0.006 | – | – | – | – | – | – | – | – | – | – | – | – | 12 | 18
